Consider eight molecules from patent US20260035459A1 (AVA LIFESCIENCE, published 2026).

B1: humanized anti-IGLV3-21^R110 antibody HC6-LC6 (antibody, human IgG1, V domains shown)
VH: QVQLQESGPGLVKPSETLSLTCTVSGFSLTSYGIHWIRQSPGRGLEWIGVIWRGGGTDSNAAFMSRVTISVDTSKSQVSLKLGSVTAADTAIYYCARSRYDEEESMNYWGQGTSVTVSS
VL: EIVLTQSPSSLSASVGDSVTITCRASGNIHSYLAWYQQKPGKAPKLLIYNAKTLADGVPSRFSGSGSGTQYTLTISSLQPEDFATYYCQHFWNTPPTFGAGTKLELK
notes: VH fused to a human IgG1 constant domain and VL to a human Ig kappa constant domain; Expressed in CHO cells
B2: humanized anti-IGLV3-21^R110 antibody HC6-LC8 (antibody, human IgG1, V domains shown)
VH: QVQLQESGPGLVKPSETLSLTCTVSGFSLTSYGIHWIRQSPGRGLEWIGVIWRGGGTDSNAAFMSRVTISVDTSKSQVSLKLGSVTAADTAIYYCARSRYDEEESMNYWGQGTSVTVSS
VL: EIVLTQSPATLSLSPGERATLSCRASGNIHSYLAWYQQKPGQAPRLLIYNAKTLADGIPARFSGSGSGTDYTLTISSLEPEDFASYYCQHFWNTPPTFGAGTKLELK
notes: Expressed in CHO cells
B3: humanized anti-IGLV3-21^R110 antibody HC7-LC7 (antibody, human IgG1, V domains shown)
VH: QVQLQESGPGLVKPSETLSLTCTVSGFSLTSYGIHWIRQSPGRGLEWIGVIWRGGGTDSNAAFMSRITISRDTSKTQVSLKLGSVTAADTAIYYCARSRYDEEESMNYWGQGTSVTVSS
VL: QIQLTQSPSFLSASVGDSVTITCRASGNIHSYLAWYQQKPGKAPQLLIYNAKTLADGVPSRFSGSGSGTEYTLTISSLQPEDFATYYCQHFWNTPPTFGAGTKLELK
notes: Expressed in CHO cells
B4: humanized anti-IGLV3-21^R110 antibody HC7-LC9 (antibody, human IgG1, V domains shown)
VH: QVQLQESGPGLVKPSETLSLTCTVSGFSLTSYGIHWIRQSPGRGLEWIGVIWRGGGTDSNAAFMSRITISRDTSKTQVSLKLGSVTAADTAIYYCARSRYDEEESMNYWGQGTSVTVSS
VL: EIVLTQSPGTLSLSPGERATLSCRASGNIHSYLAWYQQKPGQAPRLLIYNAKTLADGIPDRFSGSGSGTDYTLTISRLEPEDFAVYYCQHFWNTPPTFGAGTKLELK
notes: Expressed in CHO cells
B5: humanized anti-IGLV3-21^R110 antibody HC6-LC9 (antibody, human IgG1, V domains shown)
VH: QVQLQESGPGLVKPSETLSLTCTVSGFSLTSYGIHWIRQSPGRGLEWIGVIWRGGGTDSNAAFMSRVTISVDTSKSQVSLKLGSVTAADTAIYYCARSRYDEEESMNYWGQGTSVTVSS
VL: EIVLTQSPGTLSLSPGERATLSCRASGNIHSYLAWYQQKPGQAPRLLIYNAKTLADGIPDRFSGSGSGTDYTLTISRLEPEDFAVYYCQHFWNTPPTFGAGTKLELK
notes: Expressed in CHO cells
B6: humanized anti-IGLV3-21^R110 antibody HC7-LC6 (antibody, human IgG1, V domains shown)
VH: QVQLQESGPGLVKPSETLSLTCTVSGFSLTSYGIHWIRQSPGRGLEWIGVIWRGGGTDSNAAFMSRITISRDTSKTQVSLKLGSVTAADTAIYYCARSRYDEEESMNYWGQGTSVTVSS
VL: EIVLTQSPSSLSASVGDSVTITCRASGNIHSYLAWYQQKPGKAPKLLIYNAKTLADGVPSRFSGSGSGTQYTLTISSLQPEDFATYYCQHFWNTPPTFGAGTKLELK
notes: Expressed in CHO cells
B7: humanized anti-IGLV3-21^R110 antibody HC6-LC7 (antibody, human IgG1, V domains shown)
VH: QVQLQESGPGLVKPSETLSLTCTVSGFSLTSYGIHWIRQSPGRGLEWIGVIWRGGGTDSNAAFMSRVTISVDTSKSQVSLKLGSVTAADTAIYYCARSRYDEEESMNYWGQGTSVTVSS
VL: QIQLTQSPSFLSASVGDSVTITCRASGNIHSYLAWYQQKPGKAPQLLIYNAKTLADGVPSRFSGSGSGTEYTLTISSLQPEDFATYYCQHFWNTPPTFGAGTKLELK
notes: Expressed in CHO cells
B8: humanized anti-IGLV3-21^R110 antibody HC7-LC8 (antibody, human IgG1, V domains shown)
VH: QVQLQESGPGLVKPSETLSLTCTVSGFSLTSYGIHWIRQSPGRGLEWIGVIWRGGGTDSNAAFMSRITISRDTSKTQVSLKLGSVTAADTAIYYCARSRYDEEESMNYWGQGTSVTVSS
VL: EIVLTQSPATLSLSPGERATLSCRASGNIHSYLAWYQQKPGQAPRLLIYNAKTLADGIPARFSGSGSGTDYTLTISSLEPEDFASYYCQHFWNTPPTFGAGTKLELK
notes: Expressed in CHO cells

This assay deals with T1, soluble recombinant IGLV3-21^R110-harboring B-cell receptor, monomeric human IgM (170.5 kDa) (human).
T1 construct: Made in 293-HEK cells by transient expression and used as the analyte in BLI; also called soluble IGLV3-21^R110 B-cell receptor; soluble form of the IGLV3-21^R110 BCR
T1 sequence (heavy, as listed by the source limits assumed, chain 1 of 2): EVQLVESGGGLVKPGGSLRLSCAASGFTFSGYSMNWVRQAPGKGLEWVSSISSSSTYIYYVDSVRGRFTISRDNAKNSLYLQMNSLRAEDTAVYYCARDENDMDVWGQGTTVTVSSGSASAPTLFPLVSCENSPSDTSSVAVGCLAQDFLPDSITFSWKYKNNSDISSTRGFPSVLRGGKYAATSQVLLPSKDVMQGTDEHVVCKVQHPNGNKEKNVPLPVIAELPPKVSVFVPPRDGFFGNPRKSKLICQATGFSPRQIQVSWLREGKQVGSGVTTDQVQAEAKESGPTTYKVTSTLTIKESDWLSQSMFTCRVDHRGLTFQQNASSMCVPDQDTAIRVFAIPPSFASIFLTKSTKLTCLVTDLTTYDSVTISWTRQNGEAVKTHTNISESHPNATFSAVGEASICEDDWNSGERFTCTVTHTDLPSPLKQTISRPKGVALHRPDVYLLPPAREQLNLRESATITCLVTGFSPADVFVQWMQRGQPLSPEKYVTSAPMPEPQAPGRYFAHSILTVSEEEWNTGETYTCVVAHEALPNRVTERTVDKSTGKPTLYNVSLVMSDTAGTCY
T1 sequence (light, as listed by the source limits assumed, chain 2 of 2): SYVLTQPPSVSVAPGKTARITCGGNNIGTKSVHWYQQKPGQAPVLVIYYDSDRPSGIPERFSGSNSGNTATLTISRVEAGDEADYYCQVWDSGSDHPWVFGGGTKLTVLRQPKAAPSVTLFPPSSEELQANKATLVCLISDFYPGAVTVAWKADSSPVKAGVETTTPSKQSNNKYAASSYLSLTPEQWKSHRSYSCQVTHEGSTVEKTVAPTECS
Put plainly: BLI (Fortebio Octet), antibody captured by anti-human IgG Fc, soluble BCR (monomeric IgM) as analyte, 1:1 model. The text has this:
In brief, to define the binding affinities of the antibodies to the IGLV3-21^R110-harboring B-cell receptor, a soluble recombinant version of the BCR (170.5 kDa; sequence according to SEQ ID NO: 52 for HC and 53 for LC) was produced in 293-HEK cell line as monomeric human IgM by transient expression using a protocol described in section 1.1 of this Example, and binding to immobilized anti-IGLV3-21^R110 antibodies was monitored by Bio-Layer Interferometry (BLI) on a Fortebio Octet instrument (Satorius). Kinetic assays were performed by first immobilizing the humanized anti IGLV3-21R110 antibodies onto biosensors through an indirect capturing reagent, anti-human lgG Fc antibody. Anti IGLV3-21^R110 antibodies were loaded at a concentration of 0.01875 μg/ml to generate an anti IGLV3-21^R110 antibody capture level of between 0.30 and 0.34 nm. A 9 nM BCR-fragment solution in running buffer (PBS, 0.02% Tween20, 0.1% BSA, 0.05% sodium acide) was prepared and serial diluted 1:3 to obtain 7 concentrations from 9 to 0.012 nM (9 nM, 3 nM, 1 nM, 0.333 nM, 0.111 nM, 0.037 nM, and 0.012 nM). The anti IGLV3-21 R110 antibody capture biosensors were then submerged in wells containing the different concentrations of the soluble BCR-fragment for 900 seconds (association stage) followed by a dissociation step of 1200 seconds in running buffer. Steps were performed at a constant shake speed of 1000 rpm. All reagents were used as described by the manufacturer. Sensorgrams were generated after double reference correction (buffer and blank sensors) to compensate for both the natural dissociation of the capture anti IGLV3-21^R110 antibody and also non-specific binding of the soluble BCR-fragment to the sensor surface. […] (KD) were calculated based on the ratio of association (ka) and dissociation rate (kd) constants, obtained by fitting sensorgrams with a first order 1:1 binding model using the Fortebio Data Analysis software (Satorius).
(In general: Biolayer interferometry detects binding as a change in optical thickness at a sensor tip.)
Turning to B1, the Kd amounted to 0.211 nM.

B2: the Kd is 0.277 nM.

Regarding B3, the Kd was determined as 0.269 nM.

For B4, the Kd stood at 0.313 nM.

Turning to B5, the Kd stood at 0.291 nM.

For the molecule B6, the Kd amounted to 0.175 nM.

With B7, the Kd turned out to be 0.347 nM.

Regarding B8, the equilibrium dissociation constant (Kd) was 0.249 nM.

The Kd is the concentration at which binding is half-saturated.
